Results taken from patent US9587002B2, “Sequence of nucleotides and peptides GSE 24.2 of dyskerin, which can induce telomerase activity, method for obtaining same, therapeutic compositions and applications thereof” (CONSEJO SUPERIOR DE INVESTIGACIONES CIENTIFICAS, priority 2005, dated 2017).
“Also recorded” adds a separate entry of the source.

How the values were obtained:
293T cells = assay: Cell viability of 293T cell lines treated with cisplatin (crystal violet); type: cell-based, human; details: 293T cells stably expressing the construct vs empty vector pLNCX; cisplatin 0-100 μg/ml, 72 hours
Method: FIG. 2.—Cell viability and activation of the JNK and p38 death pathways in 293T cell lines: pLNCX and 24.2, treated with cisplatin. A) Cell viability. After seeding the 293T cells: expressing the empty vector (pLNCX) and GSE 24.2 (24.2) in 24-well plates, they were incubated with concentrations between 0-100 μg/ml of cisplatin. The cell viability was measured by means of the crystal violet technique after 72 hours of exposure to the drug. The data represent the mean of two experiments performed in quadruplicate. B) Activation kinetics. Subsequently, the activation of JNK and p38 was studied using antibodies that specifically recognise the active forms. As a load control, the levels of JNK-1 were detected.
FIG. 4.—Viability of the 293T cell lines: pLNCX, 24.2, DSK5′ and DSK treated with cisplatin. The cell lines described above (pLNCX and 24.2), the DSK 5′ cell line, which expresses a fragment of dyskerin described in the preceding figure, and a fourth one that overexpresses the complete cDNA of dyskerin (DSK) have been used. The viability was analyzed as shown in FIG. 1 A. The data represent the mean of two experiments performed in quadruplicate. […]
Growth curves. […] The number of cells was determined by estimating the absorbance at 595 nm. […]

hTR = assay: RT-PCR of hTR in cells of patients with dyskeratosis congenita; type: cell-based, human; details: RT-PCR 24 hours after transfection
Method: FIG. 10.—Telomerase activity and expression levels of hTERT and hTR in the cells of patients with dyskeratosis congenita and in VA13 cells transiently transfected with the 24.2 plasmid or the pLNCX empty vector. A) Telomerase activity measured by means of the TRAP assay in the cells of patients with dyskeratosis congenita (DC-1, DC-2 and DC-3) and in the carrier parent (DC-C) following electroporation of 45 μg of the pLNCX empty plasmid (−) or the pLNCX 24.2 vector (+) by 15 million cells. B) RT-PCR of the RNA from cells of one of the patients with dyskeratosis congenita, DC3 transfected with the empty vector and DC3 transfected with the 24.2 plasmid, using oligos specific for hTERT and hTR. As a starting RNA control, oligos for the amplification of GAPDH were used. C) Telomerase activity in VA13 cells. The cells were transiently transfected with 16 μg of the control pLNCX empty vector, expressing DKC or the GSE 24.2 peptide per million cells. 24 hours later, the telomerase activity was analysed as described above, using dilutions of the protein extracts from each transfection. D) The expression levels of hTERT and hTR in VA13 cells transfected with 16 μg of the different construct per million cells. RNA levels were detected as described above. GAPDH was used as a control. […] After 24 h of transfection, the luciferase activity was analyzed as described above. […]

B1: GSE 24.2: 165-pb cDNA fragment (nucleotides 268 to 433) of human dyskerin, SEQ ID NO1, encoding peptide SEQ ID NO2, expressed from pLNCX plasmid (nucleic acid, listed as Homo sapiens)
DNA: GGTTTCATTAATCTTGACAAGCCCTCTAACCCCTCTTCCCATGAGGTGGTAGCCTGGATTCGACGGATACTTCGGGTGGAGAAGACAGGGCACAGTGGTACTCTGGATCCCAAGGTGACTGGTTGTTTAATCGTGTGCATAGAACGAGCCACTCGCTTGGTGAAG
modifications: expressed from pLNCX plasmid; CDS (1)..(165) Sequence GSE 24.2
cell viability in response to cisplatin (293T cells): greater viability in response to cisplatin; also recorded: survival capacity to cisplatin
hTR expression levels in dyskeratosis congenita cells (hTR): an increase in the expression levels was observed
